In PMC3457997:

How the values were obtained:
[1] = target: CD95(1–66)-mCherry (human); experiment: SEC; concentrated serum-free supernatants of transfected HEK cells on Sephacryl S-300 and S-200 High Resolution columns in PBS, 0.5 mL/min; fractions analysed by immunoblot with anti-DsRed
[2] = target: CD95(1–158)-mCherry (human); experiment: as above

stoichiometry N [1]	stoichiometry N [2]	Substance
2	–	CD95(1–66)-mCherry (domain or fragment)
–	3	CD95(1–158)-mCherry (domain or fragment)
